Measured values from patent US20110201560A1 (DKFZ DEUTSCHES KREBSFORSCHUNGSZENTRUM STIFTUNG DES …, published 2011).

Columns and labels:
HPV16 E6 oncoprotein [1] = molecular target: T1, HPV16 E6 oncoprotein (HPV16, UniProt P03126 1-158); test: yeast two-hybrid screening
T1 construct: Expressed in yeast from pPC97; In the functional assays it is the endogenous E6 of HPV16-positive cells; also called HPV16 E6 protein; HPV-E6

HPV6 E6 protein = molecular target: T2, HPV6 E6 protein (HPV6, UniProt P06462 1-150); test: yeast two-hybrid
T2 construct: Expressed in yeast from a pPC97 expression vector; also called E6 of HPV6
T2 sequence: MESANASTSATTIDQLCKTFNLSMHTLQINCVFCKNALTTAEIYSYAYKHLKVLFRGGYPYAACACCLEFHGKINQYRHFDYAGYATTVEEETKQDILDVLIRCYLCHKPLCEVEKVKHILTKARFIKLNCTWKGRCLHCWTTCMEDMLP

HPV18 E6 protein = molecular target: T3, HPV18 E6 protein (HPV18, UniProt P06463 1-158); test: yeast two-hybrid
T3 construct: Expressed in yeast from a pPC97 expression vector; also called E6 of HPV18
T3 sequence (P06463 whole entry): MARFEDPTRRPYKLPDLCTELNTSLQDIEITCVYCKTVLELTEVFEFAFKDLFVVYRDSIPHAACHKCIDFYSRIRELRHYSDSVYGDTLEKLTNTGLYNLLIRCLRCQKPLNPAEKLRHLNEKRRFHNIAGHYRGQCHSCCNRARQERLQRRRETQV

HPV11 E6 protein = molecular target: T4, HPV11 E6 protein (HPV11, UniProt P04019 1-150); test: yeast two-hybrid
T4 construct: Expressed in yeast from a pPC97 expression vector; also called E6 of HPV11
T4 sequence: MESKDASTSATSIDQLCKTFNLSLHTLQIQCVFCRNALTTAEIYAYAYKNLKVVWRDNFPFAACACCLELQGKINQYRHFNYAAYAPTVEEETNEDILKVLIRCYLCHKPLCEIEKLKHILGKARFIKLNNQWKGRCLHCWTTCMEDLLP

HPV16 E6 oncoprotein [2] = molecular target: T1, HPV16 E6 oncoprotein; test: mutational studies (two-hybrid; assay not further described)

T1 sequence (P03126 whole entry): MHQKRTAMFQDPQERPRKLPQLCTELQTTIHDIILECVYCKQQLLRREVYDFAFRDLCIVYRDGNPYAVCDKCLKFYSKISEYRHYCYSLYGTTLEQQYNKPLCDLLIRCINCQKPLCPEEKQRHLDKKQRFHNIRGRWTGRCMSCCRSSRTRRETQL

B1: E6 pep 1 (peptide)
peptide: KGSLNCSCLVCWLQMFLGEFGP
notes: Linear peptide from a randomized 20-mer library; Expressed in yeast as a GAL4AD fusion (vector pADpep); also called a1
B1: binds (HPV16 E6 oncoprotein [1]); no binding (HPV6 E6 protein); no binding (HPV18 E6 protein). B1: no binding (HPV11 E6 protein).

B2: E6 pep5 (peptide)
peptide: PFLLGCFCLCCWIECQIGSYGP
notes: Linear peptide from a randomized 20-mer library; Expressed in yeast as a GAL4AD fusion (vector pADpep); also called a2
B2: binds (HPV16 E6 oncoprotein [1]); no binding (HPV6 E6 protein); no binding (HPV18 E6 protein). B2: no binding (HPV11 E6 protein).

B3: E6 pep 11 (peptide)
peptide: EFGSGCSCIVCIGLI
notes: Expressed in yeast as a GAL4AD fusion (pADpep), in the mammalian two-hybrid assay as a VP16AD fusion (pACT2), and in the p53 reporter assay as an hrGFP fusion; also called a3
B3: binds (HPV16 E6 oncoprotein [1]); no binding (HPV6 E6 protein); no binding (HPV18 E6 protein). B3: no binding (HPV11 E6 protein).

B4: pep11**m (peptide)
peptide: KEKEEYNSNSSSIASIGLI
notes: also called b2
B4: no binding (HPV16 E6 oncoprotein [2]).
